The test has as its target 3xFLAG-FL-NOPCHAP1 (human) (UniProt Q8N5I9). The test is described as follows: co-IP.

Sequence of 3xFLAG-FL-NOPCHAP1 (human) (Q8N5I9 whole entry): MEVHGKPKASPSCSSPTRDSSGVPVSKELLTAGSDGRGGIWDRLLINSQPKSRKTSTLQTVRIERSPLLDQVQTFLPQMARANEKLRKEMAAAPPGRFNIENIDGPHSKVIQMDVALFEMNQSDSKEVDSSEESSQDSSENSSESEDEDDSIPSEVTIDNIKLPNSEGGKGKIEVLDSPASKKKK
Sequence of RL-NOP56-WT (O00567 whole entry): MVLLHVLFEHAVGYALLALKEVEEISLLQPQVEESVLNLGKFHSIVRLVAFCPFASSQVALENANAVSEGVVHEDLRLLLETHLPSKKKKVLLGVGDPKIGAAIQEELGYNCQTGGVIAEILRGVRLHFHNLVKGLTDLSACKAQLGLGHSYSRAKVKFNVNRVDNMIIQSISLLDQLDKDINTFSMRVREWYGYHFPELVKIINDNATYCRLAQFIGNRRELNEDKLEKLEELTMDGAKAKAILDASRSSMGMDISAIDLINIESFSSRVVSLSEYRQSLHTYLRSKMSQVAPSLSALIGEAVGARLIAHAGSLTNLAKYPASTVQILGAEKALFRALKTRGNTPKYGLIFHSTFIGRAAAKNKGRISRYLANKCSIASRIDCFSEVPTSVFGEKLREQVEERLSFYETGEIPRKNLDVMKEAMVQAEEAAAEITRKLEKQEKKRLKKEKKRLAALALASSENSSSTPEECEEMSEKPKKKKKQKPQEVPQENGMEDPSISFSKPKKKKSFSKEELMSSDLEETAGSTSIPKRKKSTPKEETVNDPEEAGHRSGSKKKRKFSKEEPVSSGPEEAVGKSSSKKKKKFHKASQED

Regarding “RL-NOP56-WT (from UniProt O00567 1-594) (natural protein)”, the co-IP efficiency was under 0.05%.

For the origin of these results see PMC7826282.
